{
  "source": "patent US7271245B2",
  "about": "“Methods and compositions for inhibition of metastasis” (The Scripps Research Institute, priority 2004, dated 2007)",
  "molecules": {"B1": {"name": "Bc-12: patient derived human scFv antibody against activated αvβ3 with RGD motif in CDR-H3; cDNA ATCC PTA-6303 (protein)", "scFv": "MAQVQLVQSGAEVKKPGASVKVSCKASGYTFSNYGITWVRQAPGQGLEWMGWINNGNTHYAQKFQGRVTMTTDTSTSTAYMELRSLRSDDTAVYYCARDPRGDDEPYWGQGTLVTVSSGGGGSGGGGSGGGGSEIVLTQSPLSLPVTLGQPASISCRSSQNLVYSDGNTYLSWFQQRPGQSPRRLIYKVSNRDSGVPDRFSGSGSGTDFTLKISRVEAEDIGVYYCMQGTHWPPRTFGQGTKVEIKRGLGGLVDYKDDDDK"}, "B2": {"name": "Mut-12: RGE containing mutant version of scFv Bc-12 (protein)", "chain": "B1 scFv with D103E"}},
  "key": {"BMS breast cancer cells": {"test_system": "BMS breast cancer cells", "test": "Tumor cell arrest during blood flow", "format": "cell-based", "conditions": "3 μM scFv, human blood, collagen I matrix, shear rate 50 s^−1", "method": "FIGS. 3A, 3B, 3C, 3D, 3E. scFv Bc-12 and Bc-15 inhibit αvβ3 mediated adhesive breast cancer cell functions. (A) Adhesion of BMS human breast cancer cells to fibrinogen (Fg), vitronectin (VN) or type I collagen (Col I) in the absence or presence of 3 μM Bc-12, Bc-15 or their RGE mutants Mut-12, Mut-15, compared to 200 μM GRGDSPK peptide (SEQ ID NO: 11). Protein coating concentrations: 10 μg/ml (VN, Col I) or 20 μg/ml (Fg). Adhesion time: 30 min at 37° C. (B) Effect of scFvs on haptotactic BMS cell migration toward a fibrinogen substrate (16 hrs at 37° C. in transwell chambers with or without 2 μM Bc-12, Bc-15 or their RGE mutants Mut-12 or Mut-15, compared to 200 μM GRGDSPK peptide) (SEQ ID NO: 11). (C) Effect of scFvs on breast cancer cell arrest during blood flow. Metastatic BMS cells, labeled with hydroethidine, were suspended in human blood (anticoagulated with 50 nM PPACK) and perfused over a collagen I matrix at a venous wall shear rate of 50 s^−1. Under these conditions, breast cancer cells arrest by αvβ3 mediated binding to adherent, thrombus forming platelets. Tumor cell adhesion was quantified by image acquisition at 30 predefined positions during blood flow. Left: representative images of platelet signal (thrombi, green fluorescence) and tumor cell signal (red fluorescence) at identical x,y positions. […]\nTumor cell arrest during bloodflow. Breast cancer cell arrest during blood flow and interaction with platelets was measured as described. […] Adhesive events and cell interactions were visualized and recorded by fluorescence video microscopy and quantified by image acquisition at 30 predefined positions followed by computerized image analysis (MetaMorph, Universal Imaging). Tumor cells were stained with hydroethidine (red fluorescence) (20 μg/ml, 30 min, 37° C.), washed, and mixed with blood containing 10 μM mepacrine (green fluorescence). Blood cells, tumor cells, and platelets acquired green fluorescence and were visualized at 488/515 nm (excitation/emission). Tumor cells were identified by their unique red fluorescence at 543/590 nm. […]"}, "[1]": {"test_system": "human breast cancer cell lines, isolated from patient blood samples", "test": "Growth of breast cancer cell cultures in presence of scFv", "format": "cell-based", "conditions": "2 μM scFv, 4 days after seeding"}},
  "note": "Residue numbers refer to the chain shown, from its start.",
  "data": [
    {"molecule": "B1", "values": [
      {"measurement": "breast cancer cell arrest during blood flow", "setting": "BMS breast cancer cells", "result": "efficiently inhibited"},
      {"measurement": "growth of breast cancer cell lines", "setting": "[1]", "result": "retarded"}
    ]},
    {"molecule": "B2", "values": [
      {"measurement": "breast cancer cell arrest during blood flow", "setting": "BMS breast cancer cells", "result": "no effect"},
      {"measurement": "growth of breast cancer cell lines", "setting": "[1]", "result": "no effect"}
    ]}
  ]
}
